For 2 molecules, enrichment of the RPL5 mRNA, compared to the non-specific r-protein mRNAs, in the Syo1-FTpA IgG-Sepharose purification from extracts of cycloheximide-treated cells (real-time qRT-PCR) and enrichment of the RPL4 mRNA, compared to the non-specific r-protein mRNAs, in the Acl4-TAP IgG-Sepharose purification from extracts of cycloheximide-treated cells (real-time qRT-PCR) results are on record in article PMC4598080.

For test [1], the target named is T1, Rpl5 (uL18) (S. cerevisiae (endogenous in yeast cells)) (UniProt P26321).
T1 sequence: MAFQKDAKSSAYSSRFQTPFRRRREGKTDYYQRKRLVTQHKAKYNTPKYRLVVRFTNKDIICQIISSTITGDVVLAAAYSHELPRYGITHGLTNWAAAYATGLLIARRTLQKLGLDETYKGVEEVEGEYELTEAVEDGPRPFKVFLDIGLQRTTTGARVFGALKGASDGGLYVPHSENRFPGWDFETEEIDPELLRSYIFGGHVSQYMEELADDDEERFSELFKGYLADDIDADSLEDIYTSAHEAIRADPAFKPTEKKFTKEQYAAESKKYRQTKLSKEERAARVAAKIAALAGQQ

Test [2] has as its target Rpl4 (uL4), non-ribosome bound (S. cerevisiae (endogenous in yeast cells)) (UniProt P10664).
Sequence of UniProt P10664 (P10664 whole entry): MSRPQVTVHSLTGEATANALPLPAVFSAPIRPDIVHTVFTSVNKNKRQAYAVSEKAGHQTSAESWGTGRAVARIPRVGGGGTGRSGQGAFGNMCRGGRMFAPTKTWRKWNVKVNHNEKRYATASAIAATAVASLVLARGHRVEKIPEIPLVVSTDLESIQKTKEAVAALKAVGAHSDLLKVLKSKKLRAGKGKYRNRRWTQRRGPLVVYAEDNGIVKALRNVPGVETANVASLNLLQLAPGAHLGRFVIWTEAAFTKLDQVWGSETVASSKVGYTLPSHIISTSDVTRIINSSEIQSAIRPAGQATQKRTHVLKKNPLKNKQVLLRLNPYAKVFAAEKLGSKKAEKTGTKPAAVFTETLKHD

B1: Syo1-FTpA (natural protein)
chain: MGRSKKRSRASSSRLNPLRKAGSNDNNKDTNVVNKKLQPLLQNLSSVVPNDRSIALSSISVLCEDAHMRQLLLKEKLVPIILNKLLNDSNSDIVVESFGLLRNLSLEEGYDVSIYLWRSDIWTSITSNFGRIVESLSALQAAEQQPQLKPAGKSKIESKRLLFDFADNLLSLVVALSNGSDDILNEILTESKINEIFQVISQLLKYGVEKLPINLFNTTLDLIYDLSSESFEFIDHVSNNELLSQFLNGLSPALHPQANELTKVLIEGIHCQFLDMKITYDQCNKMIHSVCHSINNIDPVQLVNDINNPVEIGPATSKDESSKVITKIKDYNAKRNESMIKLQSIEIAIDLITAIIEIVASKYESPESQEVAIPEELINTLTNFLPHVFMILKDTFTSRILIGWNNLIWLFVSLSLTELSGELLTTLWSYVTQLDSQDDLSIKIGRMGCIWALLKLIFPDGAFESENRALINVQMLNNSGFARGIIEEFQNNNDLELQQKCINVLSTYAMIQGQIDANKEIGQFFIQTLTQLNVRPEILIEMTNSLFQIYGDASYDYNEPIFVRGGFLSILKDQVVPNLRQQFKMVDKNKNPELKERCHDCFTTLDSFIHYKMNENSTNQ
In test [1], B1 showed an enrichment of the RPL5 mRNA, compared to the non-specific r-protein mRNAs, in the Syo1-FTpA IgG-Sepharose purification from extracts of cycloheximide-treated cells (real-time qRT-PCR) of 150 fold.

B2: C-terminally TAP-tagged Acl4 (natural protein)
chain: MSELEATIRQAKEALAENNAKKALKILKPFKSSLKKENANNVILNEVFADAYLDNGQVEKAYPILARACELDPEGQVGGPDKFFTMGQIMGGQDGVSIITRGIMNISNTGGEMLTNVQVEKIVGGLLSVIEIWMTDLCMEPNAEEQCEELIQKAMELTEGKSPETWSTLGSIKISQQKFGEAYEAFSQAWNFFELKKQEIGSGINENGDTTQKAGLQSEYVDLLQPLLSLTKMCLEVGAYEVALKVIAAVRDIDEDNIEGYYLEGFTYYLMSKLEIFKLNNPEVSLRPENIYEFNQLIQEVPLDLSHEPISQLIYDSRLALSFALQAGVNADSKDEIVQELLGGANALLQEIGGPLDPSELTQIKKGDLVNENEDLEELDIEEEYSD
In the case of B2, the enrichment of the RPL4 mRNA, compared to the non-specific r-protein mRNAs, in the Acl4-TAP IgG-Sepharose purification from extracts of cycloheximide-treated cells (real-time qRT-PCR) in test [2] stood at 150 fold.
